According to patent publication US20130171159:

Tested on: T1, Twist1
T1 sequence: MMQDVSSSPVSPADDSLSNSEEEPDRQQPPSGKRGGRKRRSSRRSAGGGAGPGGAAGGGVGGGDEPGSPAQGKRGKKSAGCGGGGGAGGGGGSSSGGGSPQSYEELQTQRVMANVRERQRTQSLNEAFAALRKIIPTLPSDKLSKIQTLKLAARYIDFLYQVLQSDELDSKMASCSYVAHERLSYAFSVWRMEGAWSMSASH

## Akt (protein kinase B), Akt1 and Akt2 of mouse embryonic fibroblasts
  Phosphorylation of Twist1 on S42 in Akt1/2-depleted versus wild-type MEFs: Phosphorylation of Twist1 was not detected in Akt1/2-depleted MEFs under basal conditions or after insulin stimulation, but was high in stimulated wild-type MEFs
